This passage reports Kd and EC50 results from article PMC9333441.

The target of test [1] is human ACE2-Fc (human) (UniProt Q9BYF1). The test can be described thus: BLI. (In general: Biolayer interferometry detects binding as a change in optical thickness at a sensor tip.)
Test [2] concerns the target ACE2 on Vero-E6 cells (African green monkey (endogenous in Vero-E6)). Description: flow cytometry on cells. On the technique in general: A flow cytometer gives signals particle by particle.

By Kd is commonly meant the constant that tells how readily two partners part at equilibrium. For orientation: EC50 means the midpoint of the concentration-response curve. In the case of “soluble epitope-tagged RBD of Wuhan-Hu-1 SARS-CoV-2 (domain or fragment)”, the Kd in test [1] came out at 0.0093 µM. In addition, in test [2], the EC50 was 0.0174 µM.
